In patent US20240261333A1, “NOVEL TARGETS FOR ENHANCING ANTI-TUMOR IMMUNITY” (THE BROAD INSTITUTE, INC., priority 2021, published 2024):

What was measured:
TUBA1C (human) = TUBA1C (human) (UniProt Q9BQE3); assay: IgG control IP from lysate of N-FLAG B3GNT2 cells, mass spectrometry
SFXN3 (human) = SFXN3 (human) (UniProt Q9BWM7); assay: as above
HDGFL2 (human) = HDGFL2 (human) (UniProt Q7Z4V5); assay: as above
PSMA5 (human) = PSMA5 (human) (UniProt P28066); assay: as above
ERP44 (human) = ERP44 (human) (UniProt Q9BS26); assay: as above
RPL34 (human) = RPL34 (human) (UniProt P49207); assay: as above
TRAFD1 (human) = TRAFD1 (human) (UniProt O14545); assay: as above
Chain of TRAFD1 (human) (O14545 2-582 limits assumed): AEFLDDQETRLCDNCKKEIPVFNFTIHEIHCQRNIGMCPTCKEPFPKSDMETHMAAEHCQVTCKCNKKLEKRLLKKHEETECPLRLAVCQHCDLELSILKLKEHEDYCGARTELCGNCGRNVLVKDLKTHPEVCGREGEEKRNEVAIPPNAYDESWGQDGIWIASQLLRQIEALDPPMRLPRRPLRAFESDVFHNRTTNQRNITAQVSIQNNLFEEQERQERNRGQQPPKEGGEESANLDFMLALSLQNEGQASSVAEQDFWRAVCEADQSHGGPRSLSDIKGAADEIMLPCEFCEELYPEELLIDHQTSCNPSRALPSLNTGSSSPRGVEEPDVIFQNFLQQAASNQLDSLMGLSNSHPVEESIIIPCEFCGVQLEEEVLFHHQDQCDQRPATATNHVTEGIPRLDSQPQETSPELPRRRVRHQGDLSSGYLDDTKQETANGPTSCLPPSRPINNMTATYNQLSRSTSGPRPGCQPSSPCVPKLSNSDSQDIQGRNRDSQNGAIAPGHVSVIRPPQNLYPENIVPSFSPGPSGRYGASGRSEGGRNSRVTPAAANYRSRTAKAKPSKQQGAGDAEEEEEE

H1FX (human) = H1FX (human) (UniProt Q92522); assay: as above
STAU1 (human) = STAU1 (human) (UniProt O95793); assay: as above
Chain of STAU1 (human) (O95793 other isoform, or with tags, fused parts or gaps limits assumed): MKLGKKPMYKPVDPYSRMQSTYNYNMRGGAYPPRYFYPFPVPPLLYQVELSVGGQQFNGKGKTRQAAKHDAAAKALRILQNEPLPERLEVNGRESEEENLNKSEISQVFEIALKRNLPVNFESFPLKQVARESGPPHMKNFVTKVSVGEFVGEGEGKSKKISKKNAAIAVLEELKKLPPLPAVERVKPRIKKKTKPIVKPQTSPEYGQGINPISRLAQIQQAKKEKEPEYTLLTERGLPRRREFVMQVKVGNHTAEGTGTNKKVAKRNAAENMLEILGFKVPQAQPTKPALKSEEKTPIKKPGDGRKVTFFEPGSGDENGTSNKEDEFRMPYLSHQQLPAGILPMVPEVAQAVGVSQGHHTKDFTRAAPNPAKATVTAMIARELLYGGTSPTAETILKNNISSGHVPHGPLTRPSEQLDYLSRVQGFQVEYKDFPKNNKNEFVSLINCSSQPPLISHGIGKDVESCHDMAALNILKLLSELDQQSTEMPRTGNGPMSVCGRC

TECR (human) = TECR (human) (UniProt Q9NZ01); assay: as above
IFI16 (human) = IFI16 (human) (UniProt Q16666); assay: as above
KPNB1 (human) = KPNB1 (human) (UniProt Q14974); assay: as above
SLC25A22 (human) = SLC25A22 (human) (UniProt Q9H936); assay: as above
PSMB4 (human) = PSMB4 (human) (UniProt P28070); assay: as above
NTPCR (human) = NTPCR (human) (UniProt Q9BSD7); assay: as above
IPO7 (human) = IPO7 (human) (UniProt O95373); assay: as above
Chain of IPO7 (human) (O95373 whole entry): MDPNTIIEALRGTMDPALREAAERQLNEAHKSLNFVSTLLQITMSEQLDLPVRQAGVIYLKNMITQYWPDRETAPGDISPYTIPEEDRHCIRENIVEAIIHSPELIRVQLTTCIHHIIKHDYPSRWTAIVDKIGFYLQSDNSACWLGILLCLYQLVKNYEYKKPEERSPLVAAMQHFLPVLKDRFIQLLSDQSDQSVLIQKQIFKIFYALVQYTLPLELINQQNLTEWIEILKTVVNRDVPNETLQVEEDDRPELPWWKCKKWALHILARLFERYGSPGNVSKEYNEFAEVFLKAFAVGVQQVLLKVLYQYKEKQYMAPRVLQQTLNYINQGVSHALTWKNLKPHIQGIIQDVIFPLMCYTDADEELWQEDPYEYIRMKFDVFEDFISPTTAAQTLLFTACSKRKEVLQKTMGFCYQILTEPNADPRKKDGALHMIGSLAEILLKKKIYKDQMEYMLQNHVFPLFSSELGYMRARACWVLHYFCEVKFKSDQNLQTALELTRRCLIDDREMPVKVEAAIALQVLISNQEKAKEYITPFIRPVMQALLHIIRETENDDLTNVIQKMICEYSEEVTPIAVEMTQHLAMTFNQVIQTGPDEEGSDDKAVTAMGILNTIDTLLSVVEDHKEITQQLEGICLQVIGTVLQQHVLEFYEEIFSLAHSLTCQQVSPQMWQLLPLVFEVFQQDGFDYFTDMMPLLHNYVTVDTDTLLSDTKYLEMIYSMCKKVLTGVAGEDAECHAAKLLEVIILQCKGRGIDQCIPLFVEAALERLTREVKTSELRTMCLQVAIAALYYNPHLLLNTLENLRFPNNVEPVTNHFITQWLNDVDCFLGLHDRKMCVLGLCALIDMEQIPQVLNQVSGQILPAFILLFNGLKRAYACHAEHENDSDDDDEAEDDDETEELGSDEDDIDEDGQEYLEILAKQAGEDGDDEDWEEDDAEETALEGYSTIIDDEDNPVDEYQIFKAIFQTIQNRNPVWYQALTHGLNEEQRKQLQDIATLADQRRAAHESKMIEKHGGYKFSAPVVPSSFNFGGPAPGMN

RPS6 (human) = RPS6 (human) (UniProt P62753); assay: as above
YWHAZ = YWHAZ (UniProt P63104); assay: co-IP with anti-FLAG, mass spectrometry; C-FLAG B3GNT2
SERPINB12 = SERPINB12 (UniProt Q96P63); assay: as above
ATXN2L = ATXN2L (UniProt Q8WWM7); assay: as above
RPL10A = RPL10A (UniProt P62906); assay: as above
EEF1A1 = EEF1A1 (UniProt P68104); assay: as above
Chain of EEF1A1 (P68104 2-462 limits assumed): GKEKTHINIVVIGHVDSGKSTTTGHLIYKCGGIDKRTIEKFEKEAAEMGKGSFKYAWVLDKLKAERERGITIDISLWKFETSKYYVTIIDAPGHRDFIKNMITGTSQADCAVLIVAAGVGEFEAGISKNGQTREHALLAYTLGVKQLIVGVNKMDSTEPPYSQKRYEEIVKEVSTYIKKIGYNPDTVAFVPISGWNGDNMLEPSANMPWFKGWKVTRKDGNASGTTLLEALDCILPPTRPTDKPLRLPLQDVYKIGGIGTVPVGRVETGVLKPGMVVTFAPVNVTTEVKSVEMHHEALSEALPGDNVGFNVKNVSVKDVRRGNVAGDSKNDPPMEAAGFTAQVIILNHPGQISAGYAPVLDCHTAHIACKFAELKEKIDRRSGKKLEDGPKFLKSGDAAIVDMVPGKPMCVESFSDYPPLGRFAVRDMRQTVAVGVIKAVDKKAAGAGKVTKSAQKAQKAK

ATP5F1B = ATP5F1B (UniProt P06576); assay: as above
Chain of ATP5F1B (P06576 48-529 limits assumed): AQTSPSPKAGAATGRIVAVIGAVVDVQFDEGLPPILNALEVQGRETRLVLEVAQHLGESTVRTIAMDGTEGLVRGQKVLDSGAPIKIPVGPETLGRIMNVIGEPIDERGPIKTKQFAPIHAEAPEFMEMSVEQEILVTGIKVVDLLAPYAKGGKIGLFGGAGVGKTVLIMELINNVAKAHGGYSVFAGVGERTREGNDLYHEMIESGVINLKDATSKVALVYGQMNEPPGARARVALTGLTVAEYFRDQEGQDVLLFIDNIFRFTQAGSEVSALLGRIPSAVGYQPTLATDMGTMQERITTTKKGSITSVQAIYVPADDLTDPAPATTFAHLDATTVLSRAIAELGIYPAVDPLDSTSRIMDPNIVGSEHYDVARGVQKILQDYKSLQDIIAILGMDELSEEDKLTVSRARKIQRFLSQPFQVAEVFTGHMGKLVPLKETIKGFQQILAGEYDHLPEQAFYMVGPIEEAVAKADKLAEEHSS

CTSD = CTSD (UniProt P07339); assay: as above
RCC2 = RCC2 (UniProt Q9P258); assay: as above
Chain of RCC2 (Q9P258 whole entry): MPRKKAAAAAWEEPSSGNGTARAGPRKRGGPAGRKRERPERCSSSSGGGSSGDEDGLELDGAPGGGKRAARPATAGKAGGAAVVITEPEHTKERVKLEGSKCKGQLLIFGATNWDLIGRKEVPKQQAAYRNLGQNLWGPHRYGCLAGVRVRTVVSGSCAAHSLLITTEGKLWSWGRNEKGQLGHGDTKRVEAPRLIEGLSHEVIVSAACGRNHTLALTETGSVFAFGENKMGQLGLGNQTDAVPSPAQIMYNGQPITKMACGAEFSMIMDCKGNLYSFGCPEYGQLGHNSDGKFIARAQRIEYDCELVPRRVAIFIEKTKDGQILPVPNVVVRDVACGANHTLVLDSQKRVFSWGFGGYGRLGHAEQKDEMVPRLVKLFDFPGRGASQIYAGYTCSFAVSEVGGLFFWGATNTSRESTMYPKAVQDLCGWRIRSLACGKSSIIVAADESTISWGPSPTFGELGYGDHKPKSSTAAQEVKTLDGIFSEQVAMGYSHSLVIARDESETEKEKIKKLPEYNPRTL

TPI1 = TPI1 (UniProt P60174); assay: as above
RPL35A = RPL35A (UniProt P18077); assay: as above
UBA52 = UBA52 (UniProt P62987); assay: as above
RPLP2 = RPLP2 (UniProt P05387); assay: as above
Chain of RPLP2 (P05387 whole entry): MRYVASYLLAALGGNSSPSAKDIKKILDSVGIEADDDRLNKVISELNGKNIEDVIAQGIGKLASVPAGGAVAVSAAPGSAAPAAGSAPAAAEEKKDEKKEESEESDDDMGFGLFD

YBX3 = YBX3 (UniProt P16989); assay: as above
Chain of YBX3 (P16989 2-372 limits assumed): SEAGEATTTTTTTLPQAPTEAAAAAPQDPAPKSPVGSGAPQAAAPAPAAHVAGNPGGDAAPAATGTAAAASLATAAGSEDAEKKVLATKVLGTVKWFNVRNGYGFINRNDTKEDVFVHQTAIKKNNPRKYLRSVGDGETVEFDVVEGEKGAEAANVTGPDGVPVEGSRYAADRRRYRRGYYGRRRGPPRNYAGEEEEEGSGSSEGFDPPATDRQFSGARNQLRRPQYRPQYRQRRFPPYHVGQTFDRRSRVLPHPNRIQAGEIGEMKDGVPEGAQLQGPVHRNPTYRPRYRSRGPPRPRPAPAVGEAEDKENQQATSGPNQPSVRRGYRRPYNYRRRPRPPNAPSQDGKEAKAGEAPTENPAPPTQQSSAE

SLIRP = SLIRP (UniProt Q9GZT3); assay: as above
RPN1 = RPN1 (UniProt P04843); assay: as above
HNRNPA1 = HNRNPA1 (UniProt P09651); assay: as above
PCMT1 = PCMT1 (UniProt P22061); assay: as above
HNRNPF = HNRNPF (UniProt P52597); assay: as above
RPL31 = RPL31 (UniProt P62899); assay: as above
ACTR3 = ACTR3 (UniProt P61158); assay: as above
STRAP = STRAP (UniProt Q9Y3F4); assay: as above
RPL36 = RPL36 (UniProt Q9Y3U8); assay: as above
FABP5 = FABP5 (UniProt Q01469); assay: as above
RPL11 = RPL11 (UniProt P62913); assay: as above

Chain of PSMA5 (human) (P28066 whole entry): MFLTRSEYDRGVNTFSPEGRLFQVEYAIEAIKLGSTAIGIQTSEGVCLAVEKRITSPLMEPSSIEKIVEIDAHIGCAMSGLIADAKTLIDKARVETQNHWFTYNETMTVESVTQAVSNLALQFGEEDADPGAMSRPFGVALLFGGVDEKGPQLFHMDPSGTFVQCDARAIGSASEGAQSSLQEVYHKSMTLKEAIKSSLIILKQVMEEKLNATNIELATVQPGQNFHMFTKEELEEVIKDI
Chain of HDGFL2 (human) (Q7Z4V5 whole entry): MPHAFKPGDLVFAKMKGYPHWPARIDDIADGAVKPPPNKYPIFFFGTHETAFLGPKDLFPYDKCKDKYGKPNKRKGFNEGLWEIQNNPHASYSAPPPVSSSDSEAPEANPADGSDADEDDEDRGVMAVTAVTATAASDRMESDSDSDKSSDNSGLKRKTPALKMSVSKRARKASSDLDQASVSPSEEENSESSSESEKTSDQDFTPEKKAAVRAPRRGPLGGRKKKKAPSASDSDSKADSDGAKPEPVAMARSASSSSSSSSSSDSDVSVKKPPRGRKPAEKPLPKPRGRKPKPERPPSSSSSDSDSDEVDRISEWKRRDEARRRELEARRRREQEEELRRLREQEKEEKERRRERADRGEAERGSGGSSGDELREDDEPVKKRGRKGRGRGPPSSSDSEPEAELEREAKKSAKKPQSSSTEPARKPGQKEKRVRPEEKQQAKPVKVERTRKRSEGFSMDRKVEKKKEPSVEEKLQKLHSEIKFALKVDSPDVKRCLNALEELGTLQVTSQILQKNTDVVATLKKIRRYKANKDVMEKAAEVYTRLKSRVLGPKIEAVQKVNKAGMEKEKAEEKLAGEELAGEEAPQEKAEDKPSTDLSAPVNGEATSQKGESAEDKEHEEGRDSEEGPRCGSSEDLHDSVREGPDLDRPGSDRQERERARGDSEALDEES

“IgG control (Millipore Sigma 12-371) (antibody)” was tested, and the co-IP mass spectrometry count (TUBA1C (human)) was 8, the co-IP mass spectrometry count (SFXN3 (human)) was 0 and the co-IP mass spectrometry count (HDGFL2 (human)) was 0. It also gave a co-IP mass spectrometry count (PSMA5 (human)) of 0, a co-IP mass spectrometry count (ERP44 (human)) of 0 and a co-IP mass spectrometry count (RPL34 (human)) of 0. It also gave a co-IP mass spectrometry count (TRAFD1 (human)) of 0, a co-IP mass spectrometry count (H1FX (human)) of 0 and a co-IP mass spectrometry count (STAU1 (human)) of 0. For the same substance, the co-IP mass spectrometry count (TECR (human)) was 0, the co-IP mass spectrometry count (IFI16 (human)) was 0 and the co-IP mass spectrometry count (KPNB1 (human)) was 0. It also gave a co-IP mass spectrometry count (SLC25A22 (human)) of 0, a co-IP mass spectrometry count (PSMB4 (human)) of 0 and a co-IP mass spectrometry count (NTPCR (human)) of 0. For the same substance, the co-IP mass spectrometry count (IPO7 (human)) was 0 and the co-IP mass spectrometry count (RPS6 (human)) was 2.

“C-terminal FLAG tagged B3GNT2 (from UniProt Q9NY97 1-397) (enzyme)” showed a co-IP mass spectrometry count (YWHAZ) of 4, a co-IP mass spectrometry count (SERPINB12) of 2 and a co-IP mass spectrometry count (ATXN2L) of 5. The co-IP mass spectrometry count (RPL10A) was 16, the co-IP mass spectrometry count (EEF1A1) was 11 and the co-IP mass spectrometry count (ATP5F1B) was 4. For the same substance, the co-IP mass spectrometry count (CTSD) was 4, the co-IP mass spectrometry count (RCC2) was 6 and the co-IP mass spectrometry count (TPI1) was 2. For the same substance, the co-IP mass spectrometry count (RPL35A) was 6, the co-IP mass spectrometry count (UBA52) was 20 and the co-IP mass spectrometry count (RPLP2) was 13. It also gave a co-IP mass spectrometry count (YBX3) of 7, a co-IP mass spectrometry count (SLIRP) of 6 and a co-IP mass spectrometry count (RPN1) of 7. It also gave a co-IP mass spectrometry count (HNRNPA1) of 9, a co-IP mass spectrometry count (PCMT1) of 2 and a co-IP mass spectrometry count (HNRNPF) of 7. The co-IP mass spectrometry count (RPL31) was 6, the co-IP mass spectrometry count (ACTR3) was 7 and the co-IP mass spectrometry count (STRAP) was 3. The co-IP mass spectrometry count (RPL36) was 6, the co-IP mass spectrometry count (FABP5) was 8 and the co-IP mass spectrometry count (RPL11) was 7.
